Experimental data reported in the supplement of paper PMC9170038.

Test system: K4 kissing-loop RNA reporter
Assay: apparent KD of K4 kissing-loop reporter; higher = weaker reporter binding
Conditions: Eterna round: R107
Protocol: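 RNA-MaP round R107: designed RNA switches with theophylline, tryptophan, arginine or FMN aptamers are transcribed on-chip within common flanks. They are titrated with a labelled K4 kissing-loop RNA reporter in RNA-MaP buffer (100 mM Tris pH 7.5, 80 mM KCl, 4 mM MgCl2), without ligand or with the indicated ligand. Median apparent KD per design.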

[1] = input ligand: theophylline 20 uM
[2] = input ligand: tryptophan 2.4 mM
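Also: bound reporter read as fluorescence of individual clusters on recovered sequencing chips by microscopy, with normalized cluster intensities fitted with a binding model.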

Sequence	apparent KD of K4 kissing-loop reporter (input ligand: FMN 200 uM) [nM]	apparent KD of K4 kissing-loop reporter (input ligand: arginine 13.2 mM) [nM]	apparent KD of K4 kissing-loop reporter (input ligand: none) [nM]	apparent KD of K4 kissing-loop reporter [1] [nM]	apparent KD of K4 kissing-loop reporter [2] [nM]
GCGAACAUUCGCAGUGAUGUUGCGACGGAAGGAGCGCGUGAAAACGCAGGUAGGUCGCCGACAACAUUAAUUUUAAUGUGUUCGC [Arginine A K4 28]	411	308	425	356	256
GCGAAGAGAGAAGGAUAUUAGUAAUGCGUCAUGCGCCCUUACCAGUUAGUGAUGUUAACAAUACAUUAAGAAGGUCUCGGAAUCC [theeternabot_sameState_KL_FMN_B_50]	297	169	187	215	185
GCGCAUGUUAAAGGAUAUAGCAGGUGAUACAAGAAAGUGAGUGAUGUUUAUGUAGAUGAUGAUAUGUUAGAAGGUUAACAAGCGC [abcdefghijklmnop]	693	639	842	788	600
GCGGCCCAGCCGGAUACCAGUGACCCGCUGGGAACCGCGGGCCCAGAGUGAUGUUCGGGACACCCUUGGCAGCCGCCUGGGACGC [#2 Same State - Theophylline B Attempt #17 (HarryS)]	588	126	546	334	193
GCUAGCAUGGCAGGAUAUAGCAAUAGGAGUGAUGUUCCUUGGUAGGUGAGUGAUGUUCACUACCAACUAGAAGGGCCAUGCUAGC	139	111	126	108	129
GCUAGGAUGGCAGGAUAUAGUUCGUGAGUGAUGUUCAAAGAACUAAGAGGGACACCUCAUUCUAAACUAGAAGGGCCAUCCUAGC	246	275	276	421	337
GCUAUGGUAGGAAGGAGCGCUUAUUUAUUAAUAAGAGUGAUGUUCGAUAGUAGAUAUUUAUAGCAGGUAGGUCGCCUACUAUAGC [Arginine B K4 12]	186	196	167	341	167
GCUAUGGUAGGAAGGAGCGCUUAUUUAUUUUUACGAGUGAUGUUCGGUAGUAGAUAGUUAAAGCAGGUAGGUCGCCUACUAUAGC [Arginine B K4 16]	141	112	148	135	123
GCUAUGGUAGGAAGGAGCGCUUGCUCGGUCAUAUGAGUGAUGUUCGAGACUGAGCAUUUAUAGCAGGUAGGUCGCCUACUAUAGC [Arginine B K4 9]	235	206	182	242	177
GGAAAGCCAGUGAUGUUGGCAUAAACUGAAGGAGCGCGUGAAAACGCAGGUAGGUCGCAGAACCUUGCCAACUAUAUUAUUUACC [Ex Arginine A K4 21]	128	221	160	221	135
GGACAAGCAUUAGGAUAUAUAGAGCGAAACGCAAUUGAGUGAUGUUCAAAAGCAUAGGGCGAGGAAAUAGAAGGAAUGCACGGGC [Default title]	192	180	216	151	152
GGAGGGAUCUCGGCCGCCACUCAUAAGAAAUGGGCCUCAGAGAUAUAGUGAUGUUAUGUAAAGAAGAGGACCGGGAGAAAGAAGG [ExTryptoB.Db]	148	141	141	135	144
GGAUAGGAUAGAGGAUAUGGCUUACGCAGAAAUAACUUAUUGUGUAAAUCCAUAGGGAGUGAUGUUCCAGAAGGCUGUCCUAUCG [MatMod 17 - Jieux - Exclusion - FMN B]	415	212	251	244	201
GGAUCCACCAGUGAUGUUGGAGAAAACUCCAAGGAUAUGACGAAAGUCAGAAGGUGGUAAUAAGACGUCAAAGACGUCGGAUCCA [FmnA 19 #SwitchBubble #K4Early]	1400	149	101	323	150
GGAUCCACCAGUGAUGUUGGAGAAAACUCCAAGGAUAUGACGAAAGUCAGAAGGUGGUAGACUGGUCAAAGUCCGGUCGGAUCCA [FmnA10 U66]	297	77.4	338	297	262
GGAUCCACCAGUGAUGUUGGAGAAAACUCUAAGGAUAUGACGAAAGUCAGAAGGUGGUAGACUGGUCAAAGUCCGGUCGGAUCCA [FmnA10 U30+U66]	237	191	577	756	249

Sequence	apparent KD of K4 kissing-loop reporter (input ligand: FMN 200 uM) [nM]	apparent KD of K4 kissing-loop reporter (input ligand: arginine 13.2 mM) [nM]	apparent KD of K4 kissing-loop reporter (input ligand: none) [nM]	apparent KD of K4 kissing-loop reporter [1] [nM]	apparent KD of K4 kissing-loop reporter [2] [nM]
GGAUCCACCAGUGAUGUUGGAGAAAACUUCAAGGAUAUGACGAAAGUCAGAAGGUGGUAGACUGGGCAAAGUCCGGUCGGAUCCA [FmnA10 U29+G66]	543	228	296	402	274
GGAUCCACCAGUGAUGUUGGAGUAAUCUCCAAGGAUAUGACGAAAGUCAGAAGGUGGUAAAUAGACGUCAAAGACGUCGGAUCCA [FmnA 22 #SwitchBubble #K4Early]	499	78.3	97.9	234	69
GGAUCUGCCAGUGAUGUUGGUUAAUAUAUCAAGGAUAUGACGAAAGUCAGAAGGUGAAAGACUGGACAAAGUCCAGUCGGAUCCA [KL-SSFMN-A20]	237	312	352	460	270
GGAUGGUAGGCGGCCGCCACUAAAACUGAACAAAUAUAAACCAGUGAUGUUGGUAUGAUGAAGUAUAGGACCGGGCCUAGAUAGA [Exclusion - Tryptophan B (Freestyle 1)]	124	134	143	160	122
GGCAGUGAUGUUGCCAGUGGCAGAUGCGAAGGAGCGCGGUGAGACGCAGGUAGGUCGCGCAUUGAAAUUGCUGUCACUAGAAUGC [whbob_Ex_Arginine_A_2t127]	258	285	283	305	208
GGCAUGCGUAGAGUGAUGUUCUAAGAUGAUACCAGUGCGGAAACGCACCCUUGGCAGCAUCUGACGAGCAUGCCGGCGAAAGCCU	792	586	814	607	771
GGGAGGAAAAUUUUCCUCAAAAGUUGGCUACAGGAUAUCGUGGGAAUGAGAAGGGUAACCGAGACGCCCAGUGAUGUUGGGUGCC [Antegete]	415	247	318	251	245
GGGCAAGUGAGUGAUGUUCGAUGAUGCUUAAAGGAUAUGUAGGAAUACAGAAGGUUAUAUUCCCUGACAUUAGAUCUUUACAGGG [theeternabot_exclusion_KL_FMN_A_44]	117	134	105	151	90.4
GGGCGUAUUCACCGAGUGAUGUUCGGAAGGAAGGAUAUUCAAGAUUGAAGAAGGUCCGGCCCAUCGGCCAUUAAACUUGAAAGGU [theeternabot_sameState_KL_FMN_A_48]	171	113	139	162	117
GGGUAUUACGGAGGAUAUGCACUGAGGAGGAGAAUAUAGUGAUGUUAUAUAAGAGGAAGGAGAAGAGUAGAAGGCCGUGGUGUUU [SSFMNB.J]	171	126	170	195	109
GGUAGCAUCGCGGCCGCCACUAAUCGCUAAGGCUCAGGACCCUAAUAGCGAGUGAUGUUCGCCCUUAGGACCGGGCGAUGCUACC	114	93.3	101	87.5	119
GGUAGCAUGGCGGCCGCCACUAUCAGGAGUGAUGUUCCAACGCAGAGCUUCAGCUAGUGUGUAAAUAGGACCGGGCCAUGCUACC	414	69.8	512	177	866
GGUAGCAUGGCGGCCGCCACUUGCACUCGUCUUGCAUAUUGGCCUAUGAUAGUAGUGAUGUUACUAAGGACCGGGCCAUGCUACC	266	173	194	178	255
GGUAUCCAGUACCAUUGCGUUAAAACAGAAGGAGCGAGAAUAGACUCAGGUAGGUCGCUGUUUAUAGUCGAGUGAUGUUCGAAUC [Same State Arginine A GF 14]	202	281	265	315	188
GGUGCUGUCUGUGCCGCCCUCCUCGUCCCUCGAGGACCGGUACGGCCGCCACUCGAGUGAUGUUCGGGUAGCCCUCCCUGCCAGC [BDazzled - #21 Exc. Tryptophan A]	493	402	548	438	492
GGUGUUGUUUGUGCUGUUUUCCUCGUUUCUCGAGGACCGGUACGGCCGCCACUCGAGUGAUGUUUGGGUAGCGAUCUUUGUUAGU [Bdazzled - #5 Exc. Tryptophan A]	223	142	177	177	281
